Data as given in patent publication US20250002610A1 (Genmab, published 2025).
Changes are numbered by the printed parent chain.

B1: BisG1-FAPα-FEAL/b12-FEAR (bispecific antibody, human IgG1, kappa)
heavy 1: EVQLLESGGGLVQPGGSPRLSCEASGFTFSSYALSWVRQAPGKGLEWVSAISGSGGGRYYADSVKGRFTISRDNSKNTLFLQMNSLRAEDTAVYYCAKEGYSSSGTYWDHWGQGTLVTVSSASTKGPSVFPLAPSSKSTSGGTAALGCLVKDYFPEPVTVSWNSGALTSGVHTFPAVLQSSGLYSLSSVVTVPSSSLGTQTYICNVNHKPSNTKVDKRVEPKSCDKTHTCPPCPAPEFEGGPSVFLFPPKPKDTLMISRTPEVTCVVVAVSHEDPEVKFNWYVDGVEVHNAKTKPREEQYNSTYRVVSVLTVLHQDWLNGKEYKCKVSNKALPAPIEKTISKAKGQPREPQVYTLPPSREEMTKNQVSLTCLVKGFYPSDIAVEWESNGQPENNYKTTPPVLDSDGSFLLYSKLTVDKSRWQQGNVFSCSVMHEALHNHYTQKSLSLSPG
light 1: AIQMTQSPSSVSASVGDRVTITCRASQGVSSWLAWYQQKPGRAPKLLIYVASTLQSGVPSRFSGSGSGTDFTLTINSLQPEDFATYYCQQANSFPPTFGQGTRLEMKRTVAAPSVFIFPPSDEQLKSGTASVVCLLNNFYPREAKVQWKVDNALQSGNSQESVTEQDSKDSTYSLSSTLTLSKADYEKHKVYACEVTHQGLSSPVTKSFNRGEC
heavy 2: QVQLVQSGAEVKKPGASVKVSCQASGYRFSNFVIHWVRQAPGQRFEWMGWINPYNGNKEFSAKFQDRVTFTADTSANTAYMELRSLRSADTAVYYCARVGPYSWDDSPQDNYYMDVWGKGTTVIVSSASTKGPSVFPLAPSSKSTSGGTAALGCLVKDYFPEPVTVSWNSGALTSGVHTFPAVLQSSGLYSLSSVVTVPSSSLGTQTYICNVNHKPSNTKVDKRVEPKSCDKTHTCPPCPAPEFEGGPSVFLFPPKPKDTLMISRTPEVTCVVVAVSHEDPEVKFNWYVDGVEVHNAKTKPREEQYNSTYRVVSVLTVLHQDWLNGKEYKCKVSNKALPAPIEKTISKAKGQPREPQVYTLPPSREEMTKNQVSLTCLVKGFYPSDIAVEWESNGQPENNYKTTPPVLDSDGSFFLYSRLTVDKSRWQQGNVFSCSVMHEALHNHYTQKSLSLSPG
light 2: EIVLTQSPGTLSLSPGERATFSCRSSHSIRSRRVAWYQHKPGQAPRLVIHGVSNRASGISDRFSGSGSGTDFTLTITRVEPEDFALYYCQVYGASSYTFGQGTKLERKRTVAAPSVFIFPPSDEQLKSGTASVVCLLNNFYPREAKVQWKVDNALQSGNSQESVTEQDSKDSTYSLSSTLTLSKADYEKHKVYACEVTHQGLSSPVTKSFNRGEC
notes: Fab-arm exchange of IgG1-FAPα-FEAL and IgG1-b12-FEAR
B2: IgG1-FAPα-FERL (antibody)
heavy: B1 heavy 1 with G240R, A269D
light: B1 light 1
notes: Bivalent monoclonal IgG1 kappa
B3: IgG1-DR4-FERR (antibody, V domains shown)
VH: QVQLQESGPGLVKPSGTLSLTCAVSGGSISSYSWWSWIRQPPGKGLEWIGELYHSGSTNYNPSLKSRVTISVDKSKNQFSLKLRSVTAADTAVYYCVRGVATIDYWGQGTLVTVSS
VL: QSALTQPPSASGSPGQSVTISCTGTSSDVGGYNFVSWYQQDPGKAPKLLIYEVTKRPSGVPDRFSGSKSGNTASLTVSGLQAEDEADYYCSSYAGSNNVMFGGGTKLTVLG
notes: Bivalent monoclonal IgG1 lambda
B4: BisG1-b12-FERL/DR4-FERR (bispecific antibody, human IgG1, kappa, lambda)
heavy 1: B1 heavy 2 with G246R, A275D, F415L, R419K
light 1: B1 light 2
heavy 2: QVQLQESGPGLVKPSGTLSLTCAVSGGSISSYSWWSWIRQPPGKGLEWIGELYHSGSTNYNPSLKSRVTISVDKSKNQFSLKLRSVTAADTAVYYCVRGVATIDYWGQGTLVTVSSASTKGPSVFPLAPSSKSTSGGTAALGCLVKDYFPEPVTVSWNSGALTSGVHTFPAVLQSSGLYSLSSVVTVPSSSLGTQTYICNVNHKPSNTKVDKRVEPKSCDKTHTCPPCPAPEFERGPSVFLFPPKPKDTLMISRTPEVTCVVVDVSHEDPEVKFNWYVDGVEVHNAKTKPREEQYNSTYRVVSVLTVLHQDWLNGKEYKCKVSNKALPAPIEKTISKAKGQPREPQVYTLPPSREEMTKNQVSLTCLVKGFYPSDIAVEWESNGQPENNYKTTPPVLDSDGSFFLYSRLTVDKSRWQQGNVFSCSVMHEALHNHYTQKSLSLSPG
light 2: QSALTQPPSASGSPGQSVTISCTGTSSDVGGYNFVSWYQQDPGKAPKLLIYEVTKRPSGVPDRFSGSKSGNTASLTVSGLQAEDEADYYCSSYAGSNNVMFGGGTKLTVLGQPKAAPSVTLFPPSSEELQANKATLVCLISDFYPGAVTVAWKADSSPVKAGVETTTPSKQSNNKYAASSYLSLTPEQWKSHRSYSCQVTHEGSTVEKTVAPTECS
notes: Fab-arm exchange of IgG1-b12-FERL and IgG1-DR4-FERR; also called bsIgG1-ctrl-FERLxDR4-FERR

Tests used:
[1] = target: T1, pig FAPα on Expi293F cells (pig (Sus scrofa), UniProt A5D7B7 1-760 (bovine entry)); test: flow cytometry on Expi293F cells transiently expressing pig FAPα, gMFI PE
T1 chain: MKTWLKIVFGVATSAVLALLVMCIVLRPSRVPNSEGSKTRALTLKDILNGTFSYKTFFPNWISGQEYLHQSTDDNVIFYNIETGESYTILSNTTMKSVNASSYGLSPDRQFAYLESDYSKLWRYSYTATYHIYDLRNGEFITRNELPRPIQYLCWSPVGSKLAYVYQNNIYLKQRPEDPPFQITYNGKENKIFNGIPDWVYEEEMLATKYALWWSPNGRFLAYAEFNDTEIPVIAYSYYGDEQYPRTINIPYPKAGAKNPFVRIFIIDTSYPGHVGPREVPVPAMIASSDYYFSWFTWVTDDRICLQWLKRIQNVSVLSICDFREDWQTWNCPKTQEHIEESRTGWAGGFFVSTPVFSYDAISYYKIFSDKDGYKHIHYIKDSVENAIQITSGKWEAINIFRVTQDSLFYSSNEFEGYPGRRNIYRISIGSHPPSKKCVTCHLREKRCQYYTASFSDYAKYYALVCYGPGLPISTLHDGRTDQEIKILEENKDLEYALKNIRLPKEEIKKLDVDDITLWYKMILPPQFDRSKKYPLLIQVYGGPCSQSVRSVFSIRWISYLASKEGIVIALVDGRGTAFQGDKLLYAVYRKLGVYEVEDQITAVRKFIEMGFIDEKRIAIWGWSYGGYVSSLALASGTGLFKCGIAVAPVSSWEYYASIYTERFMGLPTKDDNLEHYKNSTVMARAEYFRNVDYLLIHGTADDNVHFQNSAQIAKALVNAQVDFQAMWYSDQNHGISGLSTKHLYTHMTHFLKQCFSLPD
Protocol: (§1) Binding of BisG1-FAPα-FERL/DR4-FERR, BisG1-FAPα-FEAL/b12-FEAR and IgG1-FAPα-FERL to FAPα of species commonly used for nonclinical toxicology studies was assessed by flow cytometry using Expi293F cells transiently expressing FAPα from different animal species. IgG1-b12 was included as negative control.
(§2) Expi293F cells expressing recombinant FAPα from various species (human, cynomolgus monkey, dog, pig, rat or mouse) were seeded (20,000 cells/well) in 96-Well round bottom plates (Greiner Bio-one, Cat #650101). Antibody dilutions were prepared using FACS buffer, consisting of PBS (Capricorn Scientific, Cat #PBS-10XA, diluted to 1×PBS in distilled water)+1% BSA (Roche, Cat #10735086001)+0.02% Sodium Azide (Bio-World, Cat #41920044-3). Plates were centrifuged, supernatant was removed, and cells were resuspended in 100 μL of antibody dilutions (concentration range 30-0.00017 μg/mL with three-fold serial dilutions using FACS buffer) of BisG1-FAPα-FERL/DR4-FERR, BisG1-FAPα-FEAL/b12-FEAR, IgG1-FAPα-FERL and IgG1-b12 and incubated for 30 min at 4° C. […] After 30 min incubation at 4° C., cells were washed with FACS buffer and resuspended in FACS buffer supplemented with TO-PRO-3 Iodide viability marker (Invitrogen, Cat #T3605, diluted 1:4,000). Antibody binding to viable cells (gMFI of PE on TO-PRO-3 negative cells) was analyzed by flow cytometry on a FACS Celesta and FACS_Diva software (first two experiments) or iQue® 3 and FlowJo software (last experiment). gMFI was determined and visualized using GraphPad Prism. Binding curves were analyzed using nonlinear regression analysis. The concentration (pg/mL) at which 50% of the maximal effect was observed (EC₅₀) was derived from the fitted curves.

[2] = target: T2, dog FAPα on Expi293F cells (dog (Canis familiaris), UniProt A5D7B7 1-760 (bovine entry)); test: flow cytometry on Expi293F cells transiently expressing dog FAPα, gMFI PE
T2 chain: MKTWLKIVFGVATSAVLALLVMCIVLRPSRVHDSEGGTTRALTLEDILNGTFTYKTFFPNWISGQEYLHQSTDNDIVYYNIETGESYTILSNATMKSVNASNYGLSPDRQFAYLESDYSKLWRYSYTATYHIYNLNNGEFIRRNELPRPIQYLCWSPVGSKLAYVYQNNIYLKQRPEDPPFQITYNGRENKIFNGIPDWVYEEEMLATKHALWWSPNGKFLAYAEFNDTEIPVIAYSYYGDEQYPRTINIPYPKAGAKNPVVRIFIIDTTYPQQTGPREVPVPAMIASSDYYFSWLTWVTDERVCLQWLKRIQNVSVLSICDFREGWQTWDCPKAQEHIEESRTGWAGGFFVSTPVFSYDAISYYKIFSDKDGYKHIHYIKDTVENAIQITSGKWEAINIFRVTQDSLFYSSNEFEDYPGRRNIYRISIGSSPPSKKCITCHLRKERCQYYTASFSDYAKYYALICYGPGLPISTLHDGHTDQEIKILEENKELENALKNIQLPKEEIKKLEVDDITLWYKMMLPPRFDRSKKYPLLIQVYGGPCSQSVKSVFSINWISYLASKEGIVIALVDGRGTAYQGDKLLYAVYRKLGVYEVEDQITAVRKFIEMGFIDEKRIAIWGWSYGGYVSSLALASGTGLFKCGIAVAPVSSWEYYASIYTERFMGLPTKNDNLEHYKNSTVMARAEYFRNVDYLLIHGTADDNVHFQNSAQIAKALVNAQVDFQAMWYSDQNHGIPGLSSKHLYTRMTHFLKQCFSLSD
Protocol: as §1, §2

[3] = target: T3, human DR4 (Death Receptor 4), cell surface expressed on human tumor cell lines (human, UniProt O00220 24-468); test: flow cytometry, PANC-1 cells, n = 1
T3 construct: also called TNFRSF10A; TRAIL-R1
T3 sequence: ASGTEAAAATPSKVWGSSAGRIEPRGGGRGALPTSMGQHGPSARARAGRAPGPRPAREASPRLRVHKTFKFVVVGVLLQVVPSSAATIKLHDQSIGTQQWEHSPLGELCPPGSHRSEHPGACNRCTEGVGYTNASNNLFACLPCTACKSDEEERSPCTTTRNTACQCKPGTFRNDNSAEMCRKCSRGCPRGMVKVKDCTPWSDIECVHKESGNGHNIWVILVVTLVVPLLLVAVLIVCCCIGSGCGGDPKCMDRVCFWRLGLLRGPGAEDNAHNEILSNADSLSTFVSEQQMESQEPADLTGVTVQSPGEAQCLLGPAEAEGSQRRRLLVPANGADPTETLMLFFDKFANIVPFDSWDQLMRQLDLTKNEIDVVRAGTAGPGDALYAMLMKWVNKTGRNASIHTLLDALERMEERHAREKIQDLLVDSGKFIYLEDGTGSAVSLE

Row | Binder | binding result [1] | binding result [2] | EC50 (read off the curve) [1] [µg/mL] | EC50 [3] [µg/mL]
1 | B1 | binds | binds |  | 
2 | B2 |  | binds | ~0.3 | 
3 | B3 |  |  |  | 0.68
4 | B4 |  |  |  | 1.35
